Biological target: human VEGFR2 on cells (ECFC, HMVEC-d) (human) (UniProt P35968)
Experiment: cell-based or functional assay

human VEGFR2 on cells (ECFC, HMVEC-d) (human), sequence (P35968 20-1356): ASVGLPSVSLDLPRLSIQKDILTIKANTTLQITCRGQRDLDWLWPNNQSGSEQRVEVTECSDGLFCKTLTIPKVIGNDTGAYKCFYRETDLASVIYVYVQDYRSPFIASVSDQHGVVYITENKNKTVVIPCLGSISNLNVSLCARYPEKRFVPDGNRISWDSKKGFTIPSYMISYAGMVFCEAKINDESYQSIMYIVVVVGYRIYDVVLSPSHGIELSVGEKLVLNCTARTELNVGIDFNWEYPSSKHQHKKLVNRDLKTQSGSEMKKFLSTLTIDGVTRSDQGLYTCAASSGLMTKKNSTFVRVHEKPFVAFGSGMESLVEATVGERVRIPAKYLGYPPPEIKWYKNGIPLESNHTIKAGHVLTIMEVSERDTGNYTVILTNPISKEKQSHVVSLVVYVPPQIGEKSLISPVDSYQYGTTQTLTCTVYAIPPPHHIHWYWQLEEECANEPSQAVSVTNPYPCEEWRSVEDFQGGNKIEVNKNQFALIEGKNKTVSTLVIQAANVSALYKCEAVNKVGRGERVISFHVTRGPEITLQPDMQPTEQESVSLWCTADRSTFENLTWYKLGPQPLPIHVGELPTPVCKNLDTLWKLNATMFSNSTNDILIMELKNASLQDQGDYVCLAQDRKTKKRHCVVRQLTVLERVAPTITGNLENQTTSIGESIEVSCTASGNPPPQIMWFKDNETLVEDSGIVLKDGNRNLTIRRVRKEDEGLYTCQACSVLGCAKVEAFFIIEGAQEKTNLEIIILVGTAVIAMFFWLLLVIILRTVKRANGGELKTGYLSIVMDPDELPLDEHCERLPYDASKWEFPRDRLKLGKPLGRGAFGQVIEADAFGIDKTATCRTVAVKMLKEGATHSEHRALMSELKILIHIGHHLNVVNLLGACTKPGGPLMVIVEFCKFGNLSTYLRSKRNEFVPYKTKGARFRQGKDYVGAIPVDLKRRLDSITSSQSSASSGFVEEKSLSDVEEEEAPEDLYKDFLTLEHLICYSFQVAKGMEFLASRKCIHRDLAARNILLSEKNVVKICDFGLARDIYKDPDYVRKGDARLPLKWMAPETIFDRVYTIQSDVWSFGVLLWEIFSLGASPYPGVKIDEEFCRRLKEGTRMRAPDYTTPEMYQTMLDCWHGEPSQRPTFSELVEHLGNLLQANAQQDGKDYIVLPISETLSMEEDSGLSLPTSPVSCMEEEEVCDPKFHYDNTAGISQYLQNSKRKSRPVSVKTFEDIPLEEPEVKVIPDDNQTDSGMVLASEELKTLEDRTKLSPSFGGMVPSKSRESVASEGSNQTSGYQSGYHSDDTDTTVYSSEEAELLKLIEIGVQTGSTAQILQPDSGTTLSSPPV

IMC-1121B (antibody)
inhibition of human VEGF165-induced proliferation of HMVEC-d (IC50): 31.4 nM
